# From the DeepSol protein solubility set
# Experiment: soluble on expression in E. coli; label from the status in PepcDB or PDB records
row,Sequence,soluble on expression in E. coli
1,MGSDKIHHHHHHMKRLSLLERSRLPTNDLGNARRLFEAANGRLLWLADGAGGKGCWIAFDGIRWSADEGPMRALAFAQKAAVEICDEAHALRECTADELAEVYGRKFSKEMAEERAGQLWTWSIKSGDSAKTTAMQNQFKGLRDGDEGPFVTQVWQRDFDAQPMAYHCSNGTLRFVQDDAGTWSHVFEKGHRPDDRFMQVANVAYDAAAKAKAWIERMEVMHHDPVQRTALQRIYGMTLTALISDQAFYIFQGKGQDGKSVTNDVVCQLHGMYARKADPKTFLEGPTQQSSGPQSDIVRLAGDVRLVVMDEPKKNSTWDGQKIKQATGSEMIARGVHATTELSFTPHWQLIAECNGLPKAPSDDRGFRRRFKLYPWVVQFGVTPGVADEPVHLVKARLIGEGSGVLNWMIKGCVEWLNERVVPEPEAAKRATASFWSASSAMGEWIASHCDLSDPEAREEATPLYKAFRQFCIDRGDDETKIITQTTFGRQLNDAQIYRVPNNSTGKVERVGIRLKRVDELGGGALSTSGRDTFDDDVARFDADNRDPFGAP,not soluble
2,MGSDKIHHHHHHMKSYLTPLALLVSSVFSTVAYAETQLFVTTSSTQDAPLHIVYPTGIRIGQAVQDGLQQLPLYNKTNNKEVMPIYWLGAALVDLENTAVLETKRQQVLSQLAQMGEATNDSRYITKLAQLAQFLRGIKLGQRVMQPLDIDAIRITESYNAIIEGKYQLVLPPRPSTITLVGAVTQTGNMPWQSQTSSKDYLKQAGLLENAETSFVWIIQPDGNAIRQPIAYWNYQAQDIAPGATLFVEFSSLFDGYANLNENIIELLKNRTL,not soluble
3,MGSDKIHHHHHHMKTPLVITALSLCLPFMAHAGSSFVEGDDILAGEVELGATLTTGNTDTSSFKGRLALKHELGNWENQYLLEGLYKEDTETVTAKRYIVGAQGDYLIDHDSYIFSNMNYEVDPFTGYEYSFTAASGYGHKFINDDRTKLKAEIGPGFIYQKLDSTLAAIEGYDTDKSVVAHAVINFETKLGDSSKFGQKLVMDMGEKIDARSETSLTANIVGALAMKFAVIVRYNSNPLDSKTSTDTETNMTLLYAF,not soluble
4,MGSDKIHHHHHHMKTPWLVNGKLANLYLLYGTERHLLEEWEREIVKAALPDGERFDYMKIDLNDQPLDAVLDEAETVPFLSDYRVVIAKPATFLTGAKDKKTHNVERLAEYIVQPADYAVVVLIVEAEKLDERKTIVKRLKDRAVILEAKKPTTEELFRFVMDAVNDKGYRMERPAIERLIFLTGEMWATLTRELDKLMLYAGDHPTIELEDVNLLVPRTLEDNVFQLTDYLMKRQLEPAIRLIRDLEKQGQEVLALLGLMARQYRMMLLSKRLAEQGYGERQIASKVGAHPYAIKLALQAGKRFTFAQLEQALVAITTTDEGMKTGRGDKRILFDALIVRLATL,not soluble
5,MGSDKIHHHHHHMKTRADLFAFFDAHGVDHKTLDHPPVFRVEEGLEIKAAMPGGHTKNLFLKDAKGQLWLISALGETTIDLKKLHHVIGSGRLSFGPQEMMLETLGVTPGSVTAFGLINDTEKRVRFVLDKALADSDPVNFHPLKNDATTAVSQAGLRRFLAALGVEPMIVDFAAMEVVG,soluble
6,MGSDKIHHHHHHMKTSLGPIQYCWPKEKVVEFYEAVAQSSVPLVYLGETVCSRRRELKFSDYLALAQMLKAAGKEVVLSTLTLIEAQSEFLELKKQVENGEFTIEANDVGAIYLAKEHGIPFVCGPSINSYNAATLKKFASWGMQRFVMPLELSKAWLTQVLDDLAPRQVEVEVFGHGFMPLAHSARCFTARHKGLTKDKCQTICIENPEGLLVQTQEDQPLLRLNGIQTQSANYMDLCDQQTQMQALGVDYFRISPSSLASIALADKLPAKSASHDRQCNGYWHQLPGLALS,not soluble
7,MGSDKIHHHHHHMKTTALRLYGKRDLRLETFDLPEMQEDEILATVVTDSLCLSSWKEANLGENHKKVPDDVTTNPIIIGHEFCGDILAVGKKWQHKFQPGQRYVIQANLQLPDRPDCPGYSFPWVDGEATHVVIPNEVMEQYCLLAYDGETYFEGSLVEPLSCVIGAFNANYHLQEGSYNHTMGIRPQGHTLILGGTGPMGLLAIDYALHGPVNPSLLVITDTDNDKLSYARKHYPSEPQTLIHYLNATDAAFDTLMALSGGHGFDDIFVFVPNEGLVTLASSLLATDGCLNFFAGPQDKHFSAPINFYDVHYAFTHYVGTSGGNTDDMRAAVKLIEEKKVQAAKVVTHILGLNAAGETTLELPAVGGGKKLVYTGKYLPLTSLTQIQDQALAAILARHQGIWSGEVEQYLLAHAEAISHD,not soluble
8,MGSDKIHHHHHHMKVGIDAGGTLIKIVQEQDNQRTFKTELTKNIDQVVEWLNQQQIEKLCLTGGNAGVIAENINIPAQIFVEFDAASQGLGILLKEQGHDLADYIFANVGTGTSLHYFDGQSQRRVGGIGTGGGMIQGLGYLLSQITDYKQLTDMAQHGDRNTIDLKVRHIYKDTEPPIPGDLTAANFGHVLHHLDADFTPSNKLAAVIGVVGEVVTTMAITVAREFKTENIVYIGSSFHNNALLRKVVEDYTVLRGCKPYYVENGAFSGAIGALYLEK,not soluble
9,MGSDKIHHHHHHMKVHLIGHASLFVETLDCNILMDPLLWNPGISEGMQDICPKRQVLHDQIPEFDILVISHQHIDHFNIRSLANLPKHVDVLIPKDQFLETCLRKLGYRHIYPLKDFNEVRIGSTRLVATRSENRVPEYGMIFADSDGVFWNQVDSIVNAQTINEVKSRYPQINFLLAPWQPLLQIQYQYNECVIFPYASYSHLLKIIGLTAPKAIAPGANGFKQINGSSWLNQIVFPVTREQFCHDVQQAYPTIQDRIFSFDPGDVITLNNGEVSHSPQKSTFVKKLADDSDSLYFSPVNTDSKLIDDNPEGYDIEQMKSVIEEEICIHLTKFFNDKKDSLFMEYGYWKAIYQLEVIFPTHSEAWYFDFSEHSIQCRRGKNPLANVFTLIAASSFYGLLKGIKGWDYANFGGYYRCFNKVYQATLYGIIRPFDDSNQGIPDPLSLKFPYKEVYERVRFYEIEKWGQVNDEQTIDKNSQNPMVIIGNTLIKPQHKVQCI,not soluble
10,MGSDKIHHHHHHMKVIKRLERYLSAAFSLGRIKSMSKDAQREIAELRLELGTLSQELKHTRQETERMWAWMRRHEALADDLVSVSRREAEVLKRTGQSDTALLLRMFSDLSRRIDGGESGRPDEKAPSSNGLPSSTGFEMFKDAFYHRFENQWRGAPEEISQRLKVYLPDVEAAWARAENKPIFDIGCGRGEWLGLLRQHGMEGIGFDTNAVQIKEGQAAGLDLRLGDALEALAQAEDNSLSVISAHHLIEHLPFDSVAWLTREAGRVLAPGGLLLFETPNTRNVLVGATTFYTDPTHLKPMPEQVMGVLLETAGFEPVDIRHINPHERLGEFLDRPGFDNELAQLMFGPQDLAILGIKSKDK,not soluble
11,MGSDKIHHHHHHMKVLLIIPAYNEEENILRTIASIETFKQEVTHFQHELDYVVINDGSTDGTKQILEANQINAIHLVLNLGIGGAVQTGYKYALENEYDVAVQFDGDGQHDINSLPILLEPLAEGKCDFSIGSRFIPGNEASFQSTKMRRFGIRLLSFCIRMASGKTIYDVTSGYRAGNRKVIAFFAKRYPTNYPEPESIVHLIKKRFVIVERPVNMMERLGGVSSIRALASVKYMLEVGSAILIAAFMKEGD,not soluble
12,MGSDKIHHHHHHMKYLIVVAHPDDEVLGAGASISRWTQNGDIVDVAIMCAEAKARAFRPDDNELEDDTNASTKYLGVDRIFEATFPNIEMNTVPHLRLVQFIESAIKESEPDIVITHHPADTNNDHLQTSMACQEAIRLFQRRPEVKRVKEFWYMEVPSCTEWAINNAMNLFRPNCYVEVGQEGVDAKITALGMYRGVMRPYPHPRSAEYITGLAAVRGSQWGTNYAESFEIVLREY,not soluble
13,MGSDKIHHHHHHMLCNETTSTRDLILLGLKRHGERSVGEMAKELEITEMAVRRHIQALEKDGFVQTKLVRQAMGRPTTKYLLTEKGEERFPRNYLPLTLGFLKDIEELSGIDMIHVLFEKRKERLLAEYANQMKGCSFSERVEVLAQIQNDNGYMVEWKKIDDDTYQFIEYNCPISQVAKAYPVACACEKKLFKELLQTEAVVDNCCAAKDEAGYCSYTLKKPSVDG,not soluble
14,MGSDKIHHHHHHMLDAQHIQALKEIVGEENCFDDKAHKLAYCYDATRNRYEPDAVIFPRCEEDVSRLLAYCNTHKITIVPRGAGSGFTGGSLPVNGGIVLAFEKHMNKILEIDMENMVARVQPGVVNKRLQEAVEAMGLFYPPDPASEEYSTLGGNVSENAGGMRAAKYGITKDYVMALRAVLPNGDIIRAGKKTIKDVAGYNIAGILIASEGTLAVITEITLKLLSKPKLRQSAMGVFPTIESAMNAVYKTMAAGVTPVAMEFLDNLTIRAVESKFSKGLPVEAGAILITDMDGNLPEEIELQMAKIEEKFKENGALSFKKAASEEEAKDLWFARRNASQSVTIYGKKKLNEDITVPRSKLPELLQRINAISERYGVKTPCFGHTGDGNVHVNVMVEDGSDPKQLEIGHQAIEEIFKAAVELEGTLSGEHGIGISKAPFMHLAFTPEEMNLFRAIKQAFDPNNILNNGKMAL,not soluble
15,MGSDKIHHHHHHMLDIHWLKTFVTLAEHKHFGKAATALHMTQPNVSLHIKQLEQSTRVKLIDRNPFRLTQAGFRLLESSQKTLMELQICQADLNAINDLSQGTLTIAASDIISRLLLIQPFQLFKAEFPGIDFSLLNTTSSQASELVKNAEADLGFVIAQKESQPLHFTELQQIKWCAIGDNLQQWQQANLSVDTPLAEQPTLILLGHDTRTRELLDPALPSLNLPNYRIMEVGSVDAQIDWAEAGFGVAIVPEFSVYTKANLTTKVTPLPQFPTTSLGYIVRQNQILSKAIKQLLYWVNQEIIRSQR,not soluble
16,MGSDKIHHHHHHMLDLINVSYDTQIPNNVGLSQDKKVLKALEKWHPGYINWWNDLIPQNFQESLVYLRTAVSVDPKGWAKFDYVKMPEYRWGVLLAPQVENRTIPCGEHYGQPAWQEVPGEYRNLLKRLIVIQGDTEPASVEQQRLLALTAPSLYDMRNLFQVNVEEGRHLWAMVYLLHKYFGRDGREEADDLLRRQSGSEEAPRMLGAFNEETPDWLSFFMFTYFTDRDGKMQLESLAQSGFDPLSRTCRFMLTEEAHHMFVGETGVGRTIERTCQVMKENGIDDPYDTGRIRDLGVIDLPLIQKKLNLHYTLSLDLFGQEVSTNAANAFNAGIKGRYMENRLTDDHQLQQDTYTVWDFEDGKAVQKQVAALTAINMRLRDDYTKDAAGGVGRWNKIIEKHGVDFQLSLPHEAFHRKIGVFADKHFDPSGQPVSGAEYDAGLPKWLPTHADGDFIQSLMKPCYEPGQYARWIAPPKVGIDNRPGDFEYVKLHMA,not soluble
17,MGSDKIHHHHHHMLDQIKAHLLDSINDIVSSANQFVLHPEKDFSRQSQLTMKTMIQAILTMGGNTLAKELLDLDLPVSQSAFVQRRYQIKHQAFKTLFRDITSKIPISDNLPILAVDGSDVILPRNRFDKTTSFQTGPHHTPYNLIHINALYTLEQEIYHDLRIQDNREVDERAAFIDMMKTSSFKQALVIMDRGYESYNVMAHCQERNWSYIIRIRDGNHSMKSGFNLPDTPCFDEAFDLNICRKQTNDMKELYRDFPNQYHFLPHNASFDFLLNSSRKSDPLQFYELHFRMVRLEIKPGFFETLVTNTDYSPEKLKELYAYRWGIETSFRDLKYSIGLTHFHAKKKEGILQEIYARFINFNVCKWLTSHVAIKTSKLKQTYKICFSDAVYACRKFLRNKLTSFQLETYIAKHLSIIRPNRTFQRKIKSKAPVSFTYRVT,not soluble
18,MGSDKIHHHHHHMLEATYHSLEDLAEAIGVALSAPITIEDRNHRLLAYSTHTADTDPARIATIIGRRVPESVIDQLWKDEVIQNLAAQDEPLIISARTGVGLNDRVAIAIKQDTEILGYIWSIARSTPFSETELSDFKKGALLAQRQLLAIDMQKKRQEEKTEQFFFELLHEDMPESEILKTFSKLHVAPPGISRLMVIRFSEAITPRLADRLRYLLTIQQTVRPLLYAYDETDFILWISTNDQDAHHERLQFDAFIQSFRQMLAERFNYTNFISASSEVFTGVQSIPERYEETGIVLRLKDAFPFELSTVTRYERLGLFQLLPIFSERLRRRTVRLEEIERLRSYDEKHAASLCETLEWFLHYDGNVKQVASHLHVHPNTILYRMRRIEEEAGIRMESLPERALLYLYLKADRYPL,not soluble
